Experimental data as given in the supplement of paper PMC12042874.
± gives the uncertainty stated by the source.

Assay: amyloid nucleation score (Sup35N fusion, yeast selection) (log enrichment); library NNK1; higher = more nucleation; inactive = no reads after selection
In short: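 Plasmid inserts were Illumina-sequenced at input and output from psi-negative yeast expressing Sup35N fused to peptides of 20 random codons. The yeast were induced with 100 μM copper sulfate for 24 hours and grown 7 days at 30°C on medium lacking adenine and uracil, and sequences with under 100 input reads were excluded. Nucleation score is the DiMSum log enrichment of output over input reads, centred on the mode score of non-aggregating sequences.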

Substance	amyloid nucleation score
DNDPMYYADSIEECF	inactive
DNGCDEVCWELVFEFVD	0.562 ± 0.39
DNGFSTQA	-0.11 ± 0.82
DNKGYL	-0.977 ± 1
DNTGQVRIW	-0.562 ± 0.62
DNTIYDSMCFDAGNPDLCIH	0.439 ± 0.23
DRCVQCTALTASTGR	-0.113 ± 0.94
DRFRRTNAIGLVHMDSGKG	0.907 ± 0.39
DRPTFKLVFTMKLVSLVTSL	inactive
DSEKGSVLYLVMRGMNCVSI	4.69 ± 0.052
DSFVRT	inactive
DSGCRTRVTLSRGFYRTFSS	1.2 ± 0.6
DSGTLDQYH	0.157 ± 0.86
DSLFTIYMNSISFR	5.83 ± 0.093
DSLWLRYVFMRTVLLMVHVR	inactive
DSMKMIILVDVGRNHGLGHR	3.32 ± 0.16
DSRGHGEPRRTWEW	-0.006 ± 0.58
DSSRTLFCRAHWGSRFNGRG	-1.69 ± 2.4
DSSSYICSLSSPYSWSISFF	7.366 ± 0.07
DSTRTDSLYVSACHLLYLAE	0.178 ± 0.64
DSWEYFLP	-0.375 ± 0.53
DTCYHINIGKTQSADQRDCT	0.219 ± 0.25

Substance	amyloid nucleation score
DTGSFFVSVRLSAWVIPPCK	-0.063 ± 0.39
DTKCMMENRAIVMFCIQGKH	0.827 ± 0.3
DTLIFVLREVTLLNDAGVSS	0.646 ± 0.42
DTSSACLCNRDRSDLLVCRV	inactive
DVFVY	-0.273 ± 0.45
DVFYVILNVSLVCSVPFLSA	-0.179 ± 0.72
DVLLPSLTEVAINFSSVTLK	-0.242 ± 0.41
DVLLSFEYLD	inactive
DVREITCLSHKRTRHQVHPV	0.07 ± 1.2
DVRRYSGLNRAMKLRWGSCA	0.193 ± 0.79
DVVFGFLGVGKLIGVDTMRR	-0.725 ± 0.9
DVYKKIFLRLNCYQVSMRIE	-0.697 ± 0.27
DWFAECVFLRRTLESY	-0.601 ± 0.4
DWLFLEFGHFTMPEHTKELE	-0.68 ± 1.2
DWLHQSRL	0.239 ± 0.42
DWVPLKSHISWLSVTRVLIV	0.636 ± 0.46
DWVWWRTPSELVVYGADNWR	-0.328 ± 0.84
DWWLPGMLMNRGGLQIVVLV	-0.84 ± 1.1
DYFLCKFSTDDPCLVFISWE	inactive
DYIIPMLSI	0.515 ± 0.9
DYKVTRPVDLVFDFGGIVYT	0.714 ± 0.22
DYLLCLILAKVWDDSNGSWV	1.52 ± 0.5

Substance	amyloid nucleation score
DYRIEVSLSVVYCFGLNMRN	2.38 ± 0.082
DYSNERLTDGLRMGGTRVSG	0.251 ± 0.54
EALNPVVLPSTN	1.55 ± 0.14
EASLAPYEESELA	1.76 ± 0.54
EAVSPYMYNYFRMANEQ	0.311 ± 0.42
ECAIKG	1.38 ± 0.69
ECRGQLSDKIVQYNRPEVYW	-0.199 ± 0.28
ECRMYLLTLVARRSRNPDNC	1.03 ± 0.61
ECYLV	-0.663 ± 0.8
EDDFASMRLDSLRELVLHNR	inactive
EDLRLGSSYYEMANEASYGT	1.82 ± 0.11
EDSYFYFRIEGISTVKCMAR	-0.427 ± 1.9
EECAFYSSMK	inactive
EECGLGCAVKA	0.188 ± 0.19
EEFFMLRVDWIEEANQCKRE	0.221 ± 0.47
EFDFK	-0.716 ± 0.74
EFELRASNLPFNVFPIGFSN	1.07 ± 0.67
EFSLGSPIKWTNHGLVIKGM	2.71 ± 0.13
EFVGVGNIVPFTTSWLIMGR	0.271 ± 0.2
EGHARKKEWLTITPRER	0.261 ± 0.38
EGRSWW	-0.691 ± 1.4
EGSQLSPAWFGYRDDGFTTM	0.904 ± 1

Substance	amyloid nucleation score
EGYAWGPYLKLTRSKLRMSF	-0.374 ± 0.81
EHSSVCLESSQYVRMVVIKQ	0.531 ± 0.66
EHTSGVDFIVNNLSECFTLR	inactive
EISVWVEALFSLYFRNWISG	0.229 ± 0.84
EIYGKCLNPIGL	0.53 ± 0.52
EKGRFVRLDERLYYLCVVWS	0.163 ± 0.66
EKHEVVCIVKTVR	0.424 ± 0.85
EKIQINQKG	1.04 ± 0.66
EKSGAWSTVRRMISC	0.374 ± 0.23
ELMCNTQSLSAETCFGKKSY	0.97 ± 0.63
ELYCEVSSKIAGLDLFV	0.57 ± 0.78
EMTCAWDGNELLFKQRRTIR	inactive
ENCFSCNEYCERYSPALCGQ	inactive
ENEAGATYDGMMVVGSELSS	0.997 ± 0.43
ENERMTLHCGYFKNMCMFRF	1.9 ± 0.22
ENKLNSPPWMLSLFTFLIVV	-0.242 ± 0.66
ENLGGWAPTLCYRRT	0.187 ± 0.4
ENVCFLTKM	0.423 ± 0.26
ENVSVIRFQRRYRSCPDHGL	0.04 ± 0.46
EPFETQEVMSLNMCSNQMVF	0.333 ± 0.27
